Assay results reported in paper PMC6965647.

Target: heat shock protein 90 (human (endogenous in brain tissue)) (UniProt P07900)
Test: native gel or EMSA; human brain homogenates (AD and ND) on 4–10% native gradient gel at 4 °C, immunoblot

- stoichiometry N: 2
Substance: heat shock protein 90 (from UniProt P07900 1-732) (natural protein)
